This passage reports protein stability index results from the supplement of paper PMC10567573.

The nature of this data set: protein stability index of a GFP-peptide fusion (GPS, HEK-293T) (PSI 1-6); higher = more stable.
The mark [1] stands for this setting: treatment: DMSO, c terminus: a fixed tail appended.
Setting [2] is: treatment: MLN4924 1 uM, 8 h, c terminus: a fixed tail appended.

± gives the standard deviation.
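Also: 24-mer peptide tiles fused after GFP, lentivirally expressed, FACS-sorted into six equal bins by GFP/DsRed ratio, decoded by Illumina sequencing, PSI is the read-weighted mean bin number.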

Consider ENLEGVPSVCSENIHPQVLLPDQA [ZNF263], for which the protein stability index came to 5 ± 0.39 under setting [1] and 4.96 ± 0.11 under setting [2].

As for ENQRLFEMLGRKCLTLATAVVQLY [WAS], the protein stability index runs as follows: under setting [1], 2.26 ± 0.21; under setting [2], 2.44 ± 0.33.

On to EPDANFPQFLHEGLSKPVYVINWF [FAM104B], for which the protein stability index by setting is: under setting [1], 2.37 ± 0.43; under setting [2], 2.48 ± 0.36.

For EPVAEIGVGAYGTVYKARDPHSGH [CDK4], the protein stability index by setting is: under setting [1], 4.11 ± 0.32; under setting [2], 4.1 ± 0.28.

Turning to EPVIKVAAIDNGLAFPLKHPDSWR [PI4K2A], the protein stability index under setting [1] is 3.41 ± 0.28 and the protein stability index under setting [2] was 3.02 ± 0.23.

As to EQGFSQSFTQEQVADIDGQYAMTR [CTNNB1], the protein stability index came out at 4.86 ± 0.083 under setting [1] and 4.61 ± 0.16 under setting [2].

EQHAGTSEGLHLAGTAGHPPSGSQ [FBF1] returned a protein stability index under setting [1] of 5.19 ± 0.3 and a protein stability index under setting [2] of 5.2 ± 0.15.

Consider EQLQQILKRKNKQAFLDELESSDL [MNAT1], for which the protein stability index worked out at 3.48 ± 0.46 under setting [1] and 3.73 ± 0.39 under setting [2].

In the case of EQTCDPDSSLHWSSSYSPETFRQQ [ZNF396], the protein stability index under setting [1] was 4.43 ± 0.12 and the protein stability index under setting [2] turned out to be 4.58 ± 0.12.

Turning to EQYERNKSSSSSSSSSSSSSSSSS [TMEM40], the protein stability index turned out to be 5.46 ± 0.32 under setting [1] and 5.49 ± 0.27 under setting [2].

As to ERAKELYSSGEFSSGRKWGDDAPK [INTS4], the protein stability index by setting is: under setting [1], 4.77 ± 0.33; under setting [2], 4.66 ± 0.14.

For the sequence EREEITTKKRKLGKNPDVDTSFLP [FAM50A], the protein stability index was 4.63 ± 0.35 under setting [1] and 4.79 ± 0.24 under setting [2].

Consider ESCEKNDPLSLLDDSKFPIEDTPL [PCDHGA10], for which the protein stability index stood at 5.5 ± 0.34 under setting [1] and 5.463 ± 0.028 under setting [2].

Consider ESKMYATSPYSDPVVSMDLDPQPI [PTPRD], for which the protein stability index amounted to 4.18 ± 0.53 under setting [1] and 4.42 ± 0.047 under setting [2].

Take ESPSTLQVLPDSESLPRSEIDEKV [MAGEA10]: the protein stability index under setting [1] was determined as 5.62 ± 0.19 and the protein stability index under setting [2] came out at 5.63 ± 0.3.

As for ESRDRPSCAPSASIPKLKLTRPVP [PWWP2B], the protein stability index by setting is: under setting [1], 4.26 ± 0.2; under setting [2], 4.16 ± 0.14.

As for ESVEGVVRILLEHYYKENDPSVRL [INTS4], the protein stability index was determined as 2.22 ± 0.46 under setting [1] and 2.46 ± 0.16 under setting [2].

For the sequence ETAPTTVDRTHALMKKIGQCPMRV [CRYL1], the protein stability index by setting is: under setting [1], 3.59 ± 0.14; under setting [2], 3.68 ± 0.2.

As to ETRQKKLEVAMEEEGLADEEKKLR [STK38L], the protein stability index was found to be 5.51 ± 0.18 under setting [1] and 5.6 ± 0.21 under setting [2].

With ETSYLEMAAGSEPESVEASPVVVE [KMT2E], the protein stability index is, setting by setting: under setting [1], 5.38 ± 0.27; under setting [2], 5.18 ± 0.34.

On to ETVVSYLPLSHIAAQMMDIWVPIK [ACSBG2], for which the protein stability index came out at 2.14 ± 0.36 under setting [1] and 2.04 ± 0.14 under setting [2].

With EVLREQAGGDATENFEDVGHSTDA [CYB5A], the protein stability index reads like this: under setting [1], 5.57 ± 0.43; under setting [2], 5.67 ± 0.19.

Consider EVPEMSPVTCCDVSSNNRLVVTGS [TLE6], for which the protein stability index came out at 4.35 ± 0.31 under setting [1] and 4.57 ± 0.1 under setting [2].

In turn, EVSNPSKPGRKTNQLQYMQNVVVK [BRD3] registered a protein stability index under setting [1] of 3.66 ± 0.11 and a protein stability index under setting [2] of 3.79 ± 0.28.

EWNEKVTQSDLYKKTQETLSQAGQ [TPD52L2]: the protein stability index under setting [1] is 4.39 ± 0.35 and the protein stability index under setting [2] was 4.4 ± 0.17.

As to FAGGFVDFGACDGGLLTGNEKITM [KRT13], the protein stability index stood at 2.73 ± 0.32 under setting [1] and 2.56 ± 0.079 under setting [2].

Consider FAQYDSFHVDSAAEYYRLHLEGYH [TNXB], for which the protein stability index reads like this: under setting [1], 2.43 ± 0.81; under setting [2], 2.26 ± 0.23.

As for FARNGALSTHNWTYWQCGQYLGVG [RSAD1], the protein stability index was determined as 2.63 ± 0.66 under setting [1] and 2.17 ± 0.17 under setting [2].

FATASAAVPVSTSKPSSDLLDLQP [SNAP91]: the protein stability index came to 4.01 ± 0.28 under setting [1] and 4.1 ± 0.41 under setting [2].

Take FAYKDEYEKFKLYLTIILILISFT [TMEM120A]: the protein stability index was 2.83 ± 0.35 under setting [1] and 2.46 ± 0.52 under setting [2].

Consider FCLQKLISLHPFNPWNWGKLAEAY [C8orf76], for which the protein stability index by setting is: under setting [1], 2.85 ± 0.49; under setting [2], 2.82 ± 1.3.

As to FDLCDRTFSLKTVLMIAIQLISRM [CSNK1G3], the protein stability index by setting is: under setting [1], 2.89 ± 0.21; under setting [2], 2.54 ± 0.46.

Turning to FEEPEDPSNRSFFSEIISSISDVK [PPP2R2B], the protein stability index reads like this: under setting [1], 4.09 ± 0.18; under setting [2], 4.32 ± 0.15.

In the case of FFKGLVEAVESTLQTPLDIRLKES [TRIM14], the protein stability index runs as follows: under setting [1], 2.15 ± 0.33; under setting [2], 2.29 ± 0.28.

As for FGAVVRWAEAECQRQQLPVTFGNK [BTBD1], the protein stability index is, setting by setting: under setting [1], 2.57 ± 0.3; under setting [2], 2.84 ± 0.18.

FGGGCDLTPTYLNQEDAIHFHRTL [CPOX]: the protein stability index is 2.62 ± 0.4 under setting [1] and 2.81 ± 0.3 under setting [2].

On to FHKDCASRVNNASYCPHCGEESSK [EHMT1], for which the protein stability index amounted to 3.45 ± 0.15 under setting [1] and 4.05 ± 0.47 under setting [2].

As to FKISGMNGIHVCMVFEVLGHHLLK [SRPK2], the protein stability index was found to be 3.01 ± 0.34 under setting [1] and 2.92 ± 0.31 under setting [2].

Sequence FKPACMSEIKNLERYMCSRFFIDF [TENT5D] displayed a protein stability index under setting [1] of 2.55 ± 0.61 and a protein stability index under setting [2] of 2.42 ± 0.58.

For the sequence FLCAAGDAGEESRVQVLKNEVRRG [TIAF1], the protein stability index reads like this: under setting [1], 4.18 ± 0.31; under setting [2], 4.22 ± 0.11.

For FLLQNDANPSIRDKEGYNSIHYAA [ANKRD44], the protein stability index is, setting by setting: under setting [1], 2.75 ± 0.25; under setting [2], 2.85 ± 0.32.

FLLVLAVVAGDTVSTGSTDNSPTS [ADAMTSL2]: the protein stability index turned out to be 2.5 ± 0.45 under setting [1] and 2.28 ± 0.43 under setting [2].

Consider FLQKVAQMPQEEVELLPPAPKGKG [BRD3], for which the protein stability index runs as follows: under setting [1], 4.24 ± 0.17; under setting [2], 4.32 ± 0.13.

Consider FLRSIDQFANLVLHQTVERIHVGK [LSM1], for which the protein stability index runs as follows: under setting [1], 2.95 ± 0.55; under setting [2], 2.46 ± 0.39.

FNIAGTVVKYRRPMDVYETGIEYI [ADAMTSL2]: the protein stability index reads like this: under setting [1], 2.16 ± 0.33; under setting [2], 1.8 ± 0.046.

Turning to FPEALDELPLPPFLQPLDLTGKG [ANKRD9], the protein stability index reads like this: (treatment: DMSO, c terminus: native) 3.43 ± 0.22; (treatment: MLN4924 1 uM, 8 h, c terminus: native) 3.52 ± 0.12.

Take FPETTFISVTAYQNPQITQLKIAA [TBX6]: the protein stability index reads like this: under setting [1], 2.58 ± 0.72; under setting [2], 2.73 ± 0.59.

For the sequence FPHSGKDCLLCFPETLPESSLFSV [C8orf76], the protein stability index by setting is: under setting [1], 2.21 ± 0.52; under setting [2], 2.36 ± 0.32.

Turning to FPPEGNMEDKEMTGPQLPESLEDV [ZNF263], the protein stability index reads like this: under setting [1], 5.58 ± 0.21; under setting [2], 5.48 ± 0.22.

With FPTVVWTWWIMFLSTFSVPYFLFQ [SOAT1], the protein stability index runs as follows: under setting [1], 3.1 ± 0.56; under setting [2], 2.99 ± 0.45.

Regarding FREVYVGKETMCTVDGLHFNSTYN [TRIM9], the protein stability index is, setting by setting: under setting [1], 2.23 ± 0.098; under setting [2], 2.4 ± 0.28.

For FRVGKKIGCGNFGELRLGKNLYTN [CSNK1G3], the protein stability index amounted to 2.06 ± 0.19 under setting [1] and 2.28 ± 0.087 under setting [2].

Regarding FSDSRSNNDDDEDEDDEDEDEDED [TAF7L], the protein stability index reads like this: under setting [1], 5.7 ± 0.19; under setting [2], 5.58 ± 0.41.

Regarding FSLACSLMGPSRMSLFSLYMVQDQ [M1AP], the protein stability index under setting [1] was 3.19 ± 0.42 and the protein stability index under setting [2] was 2.99 ± 0.32.

Turning to FTFLSAKCLQGNADGDGGGGQCCR [PCDHGC5], the protein stability index by setting is: under setting [1], 2.97 ± 0.18; under setting [2], 3.29 ± 0.26.

In turn, FVIKMPVMYRIGCLRDDVVFFIYL [CLPTM1] yielded a protein stability index under setting [1] of 3.05 ± 0.39 and a protein stability index under setting [2] of 3.06 ± 0.25.

As for FYFENALSKSNKPIHTIILNPHVH [CAMK2D], the protein stability index is, setting by setting: under setting [1], 2.01 ± 0.58; under setting [2], 2.42 ± 0.044.

As for GAELHLQPLEGGTPNSAGGPGAHI [ADAMTS4], the protein stability index under setting [1] stood at 4.51 ± 1.1 and the protein stability index under setting [2] is 4.74 ± 0.36.

For the sequence GAGIIVTEAGGVLMDVTGGPFDLM [IMPA1], the protein stability index reads like this: under setting [1], 2.28 ± 0.4; under setting [2], 2.48 ± 0.39.

GAPSPGSSDVSTAGTGASRSSHSS [ELF3]: the protein stability index reads like this: under setting [1], 5.33 ± 0.29; under setting [2], 5.32 ± 0.14.

As for GCASFIYLRPQSNYSSSQDALISV [OR10K2], the protein stability index by setting is: under setting [1], 2.65 ± 0.81; under setting [2], 2.54 ± 0.61.

As to GDPRPKIVWNKKGKKVSNQRFEVI [PTPRD], the protein stability index reads like this: under setting [1], 2.94 ± 0.24; under setting [2], 3.46 ± 0.64.

Take GEDEENREHRVRRIHVRRHITHDE [KCTD13]: the protein stability index under setting [1] was 5.23 ± 0.2 and the protein stability index under setting [2] stood at 5.1 ± 0.29.

Consider GEGRSRGSANDYKDTLGKGSSLSA [KRT71], for which the protein stability index was 4.65 ± 0.52 under setting [1] and 4.96 ± 0.35 under setting [2].

In turn, GFFEEKGAIFCPPCYDVRYAPSCA [PDLIM7] gave a protein stability index under setting [1] of 2.26 ± 0.22 and a protein stability index under setting [2] of 2.58 ± 0.3.

Sequence GFTPDRLSSSCCHTVPDFHLSSPA [PLK2] returned a protein stability index under setting [1] of 3.02 ± 0.22 and a protein stability index under setting [2] of 3.15 ± 0.16.

For the sequence GGIETGSITEMFGEFRTGKTQICH [RAD51], the protein stability index by setting is: under setting [1], 3.63 ± 0.34; under setting [2], 3.71 ± 0.51.

As to GGTPARSGTTLISVIVLDINDNAP [PCDHGC5], the protein stability index runs as follows: under setting [1], 2.66 ± 1.1; under setting [2], 2.64 ± 1.6.

As for GHGYDSKKQQELTAAVLGLICEGL [ZBED1], the protein stability index by setting is: under setting [1], 2.34 ± 0.31; under setting [2], 2.09 ± 0.29.

With GHKRKQPLPKRVAKVPRPPSTLLP [FOXJ1], the protein stability index runs as follows: under setting [1], 4.02 ± 0.49; under setting [2], 3.86 ± 0.041.

For the sequence GIESMDQCRHTLEQHNWNIEAAVQ [FAF2], the protein stability index by setting is: under setting [1], 3.78 ± 0.2; under setting [2], 4.08 ± 0.19.

As to GIMCLKRLNYDRKELEKRREESQH [PPFIA4], the protein stability index under setting [1] was 3.69 ± 0.31 and the protein stability index under setting [2] was found to be 3.62 ± 0.4.
